Key:
[1] = biological target: T1, PHD2 (Homo sapiens, UniProt Q9GZT9); assay: PHD binding assay (pull down of PHD2 with GST-HIF-1α (531-826)); conditions: lysates from cells transfected with OS-9 and PHD2 vectors versus PHD2 vector alone; FIG. 7B
T1 construct: expressed in transfected cells; host or cells: 293 cells (whole cell lysate used as the enzyme source)
Protocol: For in vitro VHL binding assay, preincubated GstA and 5 μl of [^35S]methionine-labeled VHL protein were mixed in a total volume of 300 μl of PBS-T with 1 mM desferrioxamine and incubated at 4° C. for 90 min. 20 ul of glutathione-Sepharose-4B beads (Amersham Biosciences) was added and incubated for 30 min with rotation. Beads were washed three times with PBS-T. Proteins were eluted in Laemmli sample buffer, fractionated by SDS-PAGE, and detected by autoradiography. For PHD binding assay, […] of GST-HIF-1α was preincubated with 50 μg of -whole cell lysate in a total volume of 50 μl with PBS-T at 30° C. for 10 min with or without 1 mM DMOG. The reaction was terminated by addition of desferrioxamine to 1 mM, 20 μl of glutathione-Sepharose-4B beads were added and incubated for 30 min. The beads were washed three times with PBS-T. Bound protein was eluted in Laemmli sample buffer, fractionated by SDS-PAGE, and subjected to immunoblot assay using antibodies against PHD2 (Novus Biologicals Inc.) or GST (Amersham).

[2] = biological target: HIF-1α (Homo sapiens, UniProt Q16665); assay: In vitro interaction (GST pull-down) assay of OS-9 with GST-HIF-1α fusion proteins; assay type: binding; set-up: made in house; host or cells: E. coli BL21-Gold(DE3)pLysS (GST fusion); rabbit reticulocyte lysate TNT T7 (HA-OS-9); conditions: increasing amounts of in vitro-translated OS-9, desferrioxamine present; FIG. 6C
Protocol: (§1) To prepare GST fusion proteins, E. coli BL21-Gold(DE3)pLysS (Stratagene) was transformed with a pGEX expression vector and treated for 4 h with 0.5 mM isopropyl-D-thiogalactoside. Pelleted cells were lysed by sonication in PBS containing 1% Triton X-100 and Complete protease inhibitor cocktail (Roche). After centrifugation, supernatants were applied to glutathione-Sepharose 4B beads (Amersham Pharmiacia Biotech). GST fusion proteins were eluted with 10 mM reduced glutathione in 50 mM Tris-HCl (pH 8.0) and stored at −80° C. The concentration and purity of eluates were determined by the Bradford method and by SDS-PAGE. [^35S]methionine-labeled proteins were generated in reticulocyte lysates with plasmids encoding HA-OS-9 or FLAG-VHL using the TNT T7 coupled transcription/translation system (Promega). Ten μl of in vitro-translated ^35S-labeled protein was mixed with 4 μg of GST or GST-HIF-1α fusion protein (Mahon et al. 2001) in a final volume of 200 μof PBS-T binding buffer (Dulbecco's PBS [pH 7.4], 0.1% Tween-20). The binding reaction was performed at 4° C. for 2 h with rotation followed by the addition of […] pre-washed glutathione-Sepharose 4B beads. After 30 min of mixing on a rotator, the beads were washed three times with PBS-T. Proteins were eluted in Laemmli sample buffer and analyzed by SDS-PAGE followed by autoradiography.

[3] = test system: HIF-1α; assay: as above; assay type: binding, human; conditions: FIG. 2A
Protocol: as §1

[4] = biological target: T2, PHD1 (Homo sapiens, UniProt Q96KS0); assay: Co-immunoprecipitation of HA-OS-9 with PHD1 in 293 cells; assay type: cell-based; conditions: anti-HA immunoprecipitates, immunoblot; FIG. 5
T2 construct: expressed in transfected cells; host or cells: 293 cells
Protocol: 293 cells (3×10^6 cells per […] plate) were transfected with Lipofectamine Plus and a total of 10 μg of expression vectors. After 24 h, cells were lysed with PBS/0.1% Tween-20. 400 μg of whole cell lysate (brought to a final volume of 200 μl with lysis buffer) were immunoprecipitated using anti-HA affinity matrix (Roche) followed by immunoblot assay using antibody against HIF-1α (Zhong et al. 1999), PHD 1-3 (Novus Biologicals Inc.), or HA (Roche).

T1 sequence (Q9GZT9 whole entry): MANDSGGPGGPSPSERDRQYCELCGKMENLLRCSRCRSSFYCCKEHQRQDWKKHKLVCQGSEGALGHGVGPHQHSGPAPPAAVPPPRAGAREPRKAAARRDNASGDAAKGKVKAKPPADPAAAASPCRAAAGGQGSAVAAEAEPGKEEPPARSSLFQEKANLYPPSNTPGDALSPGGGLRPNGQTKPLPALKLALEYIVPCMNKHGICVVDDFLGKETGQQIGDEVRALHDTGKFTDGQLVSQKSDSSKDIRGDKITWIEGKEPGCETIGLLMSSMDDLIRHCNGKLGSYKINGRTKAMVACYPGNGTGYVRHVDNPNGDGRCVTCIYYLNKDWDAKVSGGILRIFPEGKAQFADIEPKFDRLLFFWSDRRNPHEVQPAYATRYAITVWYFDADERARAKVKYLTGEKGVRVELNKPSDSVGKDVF
HIF-1α (Homo sapiens, UniProt Q16665), sequence (Q16665 531-826): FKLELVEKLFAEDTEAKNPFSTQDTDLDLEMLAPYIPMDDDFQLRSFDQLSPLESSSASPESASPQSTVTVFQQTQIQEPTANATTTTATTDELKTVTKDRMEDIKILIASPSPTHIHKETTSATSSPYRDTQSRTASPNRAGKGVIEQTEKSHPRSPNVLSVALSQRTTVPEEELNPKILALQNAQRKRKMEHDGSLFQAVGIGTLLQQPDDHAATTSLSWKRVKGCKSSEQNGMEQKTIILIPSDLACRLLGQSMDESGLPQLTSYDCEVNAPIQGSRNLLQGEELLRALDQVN
T2 sequence (Q96KS0 whole entry): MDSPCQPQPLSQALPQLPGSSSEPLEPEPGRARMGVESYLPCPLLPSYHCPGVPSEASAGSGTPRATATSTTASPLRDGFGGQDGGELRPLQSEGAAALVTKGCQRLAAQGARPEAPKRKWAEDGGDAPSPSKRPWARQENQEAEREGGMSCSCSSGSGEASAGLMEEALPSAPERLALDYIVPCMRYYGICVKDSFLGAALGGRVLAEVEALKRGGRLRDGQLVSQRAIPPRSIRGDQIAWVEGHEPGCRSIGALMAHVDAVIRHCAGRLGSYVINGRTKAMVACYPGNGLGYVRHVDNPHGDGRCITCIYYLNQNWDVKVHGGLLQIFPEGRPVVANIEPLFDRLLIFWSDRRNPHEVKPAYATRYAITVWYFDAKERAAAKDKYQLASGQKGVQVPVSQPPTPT

B1: OS-9: human OS-9 protein (667-residue isoform), HA-tagged, from expression vector or in vitro-translated (protein)
chain: MAAETLLSSLLGLLLLGLLLPASLTGGVGSLNLEELSEMRYGIEILPLPVMGGQSQSSDVVIVSSKYKQRYECRLPAGAIHFQREREEETPAYQGPGIPELLSPMRDAPCLLKTKDWWTYEFCYGRHIQQYHMEDSEIKGEVLYLGYYQSAFDWDDETAKASKQHRLKRYHSQTYGNGSKCDLNGRPREAEVRFLCDEGAGISGDYIDRVDEPLSCSYVLTIRTPRLCPHPLLRPPPSAAPQAILCHPSLQPEEYMAYVQRQADSKQYGDKIIEELQDLGPQVWSETKSGVAPQKMAGASPTKDDSKDSDFWKMLNEPEDQAPGGEEVPAEEQDPSPEAADSASGAPNDFQNNVQVKVIRSPADLIRFIEELKGGTKKGKPNIGQEQPVDDAAEVPQREPEKERGDPERQREMEEEEDEDEDEDEDEDERQLLGEFEKELEGILLPSDRDRLRSEVKAGMERELENIIQETEKELDPDGLKKESERDRAMLALTSTLNKLIKRLEEKQSPELVKKHKKKRVVPKKPPPSPQPTEEDPEHRVRVRVTKLRLGGPNQDLTVLEMKRENPQLKQIEGLVKELLEREGLTAAGKIEIKIVRPWAEGTEEGARWLTDEDTRNLKEIFFNILVPGAEEAQKERQRQKELESNYRRVWGSPGGEGTGDLDEFDF
modifications: left off: small tags and cut ends
notes: human OS-9 protein (667-residue isoform), HA-tagged, from expression vector or in vitro-translated
In the case of B1, the “binding of PHD2 to GST-HIF-1α (531-826)” value [1] is reported as “increased binding”, the “binding of OS-9 to GST-HIF-1α (531-826)” value [2] is reported as “dose-dependent manner” and the “binding of OS-9 to GST-HIF-1α” value ([3]; HIF-1α residues 1-329, 429-608, 531-610, and 786-826) is reported as “did not bind”. For the same molecule, the “binding of OS-9 to GST-HIF-1α” value ([3]; HIF-1α residues 531-826, 653-826, or 692-826) was “efficiently bound” and the “interaction of OS-9 with PHD1” value [4] was “interaction”.

— US20090202508A1, “NEGATIVE REGULATION OF HYPOXIA INDUCIBLE FACTOR 1 BY OS-9” (THE JOHNS HOPKINS UNIVERSITY, priority 2004, published 2009)
